In US20220025025A1 (IBEX BIOSCIENCES, published 2022):

Target: T1, filamin-A (human, UniProt P21333 2-2647)
T1 construct: whole, on cells; Endogenous filamin-A of human cell lines; No purified filamin-A was used; also called FLNA; FLNa
Test: flow cytometry, surface staining of SKNAS (human neuroblastoma) cells, 2 µg primary antibody
Method: B411 surface staining on several different cell types was conducted. Cells were plated at a concentration of 0.5-1.0 million cells per well, and incubated overnight. Cells were then lifted from the wells, washed, and resuspended in flow cytometry media with 2 μg of primary antibody for 1 hour on ice. Cells were washed and incubated with the secondary antibody (5 μg/ml) for 30 minutes on ice. Cells were washed again and analyzed by flow cytometry.

T1 sequence (P21333 2-2647): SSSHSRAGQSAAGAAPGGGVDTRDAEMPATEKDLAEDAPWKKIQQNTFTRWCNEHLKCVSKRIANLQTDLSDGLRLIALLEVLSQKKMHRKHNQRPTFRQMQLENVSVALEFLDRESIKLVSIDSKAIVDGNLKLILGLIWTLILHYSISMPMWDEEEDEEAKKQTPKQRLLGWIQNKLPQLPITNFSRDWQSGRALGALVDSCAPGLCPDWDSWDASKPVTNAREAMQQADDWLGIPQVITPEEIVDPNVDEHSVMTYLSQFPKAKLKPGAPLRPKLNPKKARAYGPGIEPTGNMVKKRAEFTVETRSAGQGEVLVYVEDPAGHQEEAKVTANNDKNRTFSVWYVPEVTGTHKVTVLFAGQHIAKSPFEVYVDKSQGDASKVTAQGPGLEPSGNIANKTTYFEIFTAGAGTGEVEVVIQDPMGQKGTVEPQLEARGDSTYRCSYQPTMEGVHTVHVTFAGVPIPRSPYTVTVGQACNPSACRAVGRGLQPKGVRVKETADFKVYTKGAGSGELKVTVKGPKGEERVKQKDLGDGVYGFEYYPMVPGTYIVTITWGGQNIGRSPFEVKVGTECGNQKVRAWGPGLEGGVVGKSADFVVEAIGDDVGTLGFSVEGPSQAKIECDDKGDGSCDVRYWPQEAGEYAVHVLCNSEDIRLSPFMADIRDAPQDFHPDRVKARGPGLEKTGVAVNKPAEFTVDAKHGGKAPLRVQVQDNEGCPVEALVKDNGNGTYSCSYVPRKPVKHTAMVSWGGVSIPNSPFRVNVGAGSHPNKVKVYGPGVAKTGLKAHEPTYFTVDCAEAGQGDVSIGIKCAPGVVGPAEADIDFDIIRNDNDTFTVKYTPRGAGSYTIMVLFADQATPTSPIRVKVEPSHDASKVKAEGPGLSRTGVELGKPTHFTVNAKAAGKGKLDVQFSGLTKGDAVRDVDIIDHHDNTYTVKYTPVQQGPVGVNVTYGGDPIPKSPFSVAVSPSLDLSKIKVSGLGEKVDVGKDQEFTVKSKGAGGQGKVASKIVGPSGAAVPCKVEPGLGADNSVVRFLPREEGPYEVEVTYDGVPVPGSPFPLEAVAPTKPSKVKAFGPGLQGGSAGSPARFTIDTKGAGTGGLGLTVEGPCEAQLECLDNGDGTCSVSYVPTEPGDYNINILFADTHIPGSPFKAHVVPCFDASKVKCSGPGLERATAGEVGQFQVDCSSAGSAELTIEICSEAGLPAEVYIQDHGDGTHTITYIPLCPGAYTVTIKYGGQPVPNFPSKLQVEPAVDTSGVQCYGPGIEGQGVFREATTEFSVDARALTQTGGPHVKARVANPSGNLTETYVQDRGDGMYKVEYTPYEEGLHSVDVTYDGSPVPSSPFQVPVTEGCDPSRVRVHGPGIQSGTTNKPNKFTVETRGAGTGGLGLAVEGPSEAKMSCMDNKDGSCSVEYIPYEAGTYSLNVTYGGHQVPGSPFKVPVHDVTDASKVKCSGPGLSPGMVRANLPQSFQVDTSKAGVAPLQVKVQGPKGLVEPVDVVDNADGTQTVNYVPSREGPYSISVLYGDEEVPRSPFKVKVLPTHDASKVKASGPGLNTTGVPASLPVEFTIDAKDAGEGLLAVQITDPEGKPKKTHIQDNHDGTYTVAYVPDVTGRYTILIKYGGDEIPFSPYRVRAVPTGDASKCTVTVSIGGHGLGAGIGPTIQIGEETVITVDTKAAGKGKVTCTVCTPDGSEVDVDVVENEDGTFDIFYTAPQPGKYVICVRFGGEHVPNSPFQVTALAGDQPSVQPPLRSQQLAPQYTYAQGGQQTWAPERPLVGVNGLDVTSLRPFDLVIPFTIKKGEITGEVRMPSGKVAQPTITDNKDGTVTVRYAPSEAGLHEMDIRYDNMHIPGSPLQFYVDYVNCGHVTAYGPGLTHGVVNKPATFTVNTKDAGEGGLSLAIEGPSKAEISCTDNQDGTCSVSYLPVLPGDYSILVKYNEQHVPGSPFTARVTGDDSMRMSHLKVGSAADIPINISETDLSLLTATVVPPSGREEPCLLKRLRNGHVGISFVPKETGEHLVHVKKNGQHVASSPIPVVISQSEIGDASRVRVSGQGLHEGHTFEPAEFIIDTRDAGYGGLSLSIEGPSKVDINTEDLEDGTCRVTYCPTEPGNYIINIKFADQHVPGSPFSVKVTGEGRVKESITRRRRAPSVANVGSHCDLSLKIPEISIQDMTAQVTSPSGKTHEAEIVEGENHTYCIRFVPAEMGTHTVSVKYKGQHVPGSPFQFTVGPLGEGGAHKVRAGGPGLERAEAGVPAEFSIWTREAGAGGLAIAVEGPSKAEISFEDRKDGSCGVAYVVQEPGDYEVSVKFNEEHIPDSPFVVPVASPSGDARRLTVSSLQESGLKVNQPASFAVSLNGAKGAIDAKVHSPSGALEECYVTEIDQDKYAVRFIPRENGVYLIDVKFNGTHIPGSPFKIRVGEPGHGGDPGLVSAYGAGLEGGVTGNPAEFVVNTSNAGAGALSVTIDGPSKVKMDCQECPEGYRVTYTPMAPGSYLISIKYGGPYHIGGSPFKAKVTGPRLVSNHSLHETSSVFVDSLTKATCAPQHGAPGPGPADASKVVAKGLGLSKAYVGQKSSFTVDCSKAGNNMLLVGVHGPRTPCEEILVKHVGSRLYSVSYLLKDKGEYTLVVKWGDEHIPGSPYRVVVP

B1: anti-filamin-A antibody B411 (antibody, human IgG1, kappa, V domains shown)
VH: EVKLVESGGGLVQPGGSLKLSCAASGFTFSSYTMSWVRQTPEKRLEWVAYISNGGGSTYYPDTVKGRFTISRDNAKNTLYLQMSSLKSEDTAMYYCASDGIIRPFAYWGQGTLVTVSA
VL: DIVMTQSHKFMSTSVGDRVSITCKASQDVSLDVAWYQQKPGQSPKLLIYSASHRYTGVPDRFTGSGSGTDFTFTISGVQAEDLAVYFCQQHYSTPLTFGAGTKLELKR
notes: also called B4111
B1: binds.
